In article PMC12692543:

What was measured:
[1] = biological target: rhFrizzled-4/FC Chimera (human) (UniProt Q9ULV1); assay: ELISA; rhFrizzled-4/Fc coated on a 96-well plate overnight; Norrin preparations as extracted from bacteria, BEFORE refolding, serially diluted (0.8–500 ng/mL) in 1% BSA or casein in PBS, 2 h; detected with biotinylated Norrin antibody and streptavidin–HRP; result as percent of a comparison control (R&D Systems Norrin)
[2] = biological target: rhFrizzled-4/FC Chimera (human) (UniProt Q9ULV1); assay: ELISA; rhFrizzled-4/Fc coated on a 96-well plate overnight; Norrin preparations AFTER denaturation and refolding with disulfide reshuffling (GSH/GSSG, 1 M arginine), serially diluted (0.8–500 ng/mL) in 1% BSA or casein in PBS, 2 h; detected with biotinylated Norrin antibody and streptavidin–HRP; result as percent of a comparison control (R&D Systems Norrin)

| percent of expected binding activity relative to comparison control (R&D Systems Norrin) [1] [%] | percent of expected binding activity relative to comparison control (R&D Systems Norrin) [2] [%] | Substance |
| --- | --- | --- |
| 14 | 101 | Norrin^K86P released from MBP-linker-Norrin by HRV3C protease (from UniProt Q00604 25-133) (natural protein) |
| 7 | 94 | MBP-linker-Norrin^K86P (intact, uncut fusion protein from plasmid construct Nor-w-Linker) (from UniProt Q00604 25-133) |
